The series is described as follows: protein stability index of a GFP-peptide fusion (GPS, HEK-293T) (PSI 1-6); higher = more stable.
Where [1] appears, read: treatment: DMSO, c terminus: a fixed tail appended.
The mark [2] stands for this setting: treatment: MLN4924 1 uM, 8 h, c terminus: a fixed tail appended.
Where [3] appears, read: treatment: DMSO, c terminus: native.
The mark [4] stands for this setting: treatment: MLN4924 1 uM, 8 h, c terminus: native.

± gives the standard deviation.
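Further: 24-mer peptide tiles fused after GFP, lentivirally expressed, FACS-sorted into six equal bins by GFP/DsRed ratio, decoded by Illumina sequencing, PSI is the read-weighted mean bin number.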

Take QIEEVFISEEIQMSTKESDFLCLL [MIA2]: the protein stability index is, setting by setting: under setting [1], 2.51 ± 0.42; under setting [2], 2.49 ± 0.37.

Consider QKVVVTTPLHRDKTPLHQKHAAFV [MYBL2], for which the protein stability index was 3 ± 0.2 under setting [1] and 3.14 ± 0.32 under setting [2].

As for QLAAVHLSKSRTDYQPTQAGRLMR [RNF180], the protein stability index under setting [1] came to 3.5 ± 0.18 and the protein stability index under setting [2] turned out to be 3.52 ± 0.26.

Regarding QLAEENERLKQEIERLTREVEATR [DDIT3], the protein stability index stood at 5.4 ± 0.26 under setting [1] and 5.51 ± 0.32 under setting [2].

In turn, QLAQDDIDGIQAIYGRSQNPVQPI [MMP1] returned a protein stability index under setting [1] of 3.69 ± 0.1 and a protein stability index under setting [2] of 3.9 ± 0.14.

Sequence QLEQVIESQKANQCAVLIYTSGTT [ACSBG2] came in with a protein stability index under setting [1] of 2.52 ± 0.32 and a protein stability index under setting [2] of 2.51 ± 0.25.

Consider QLKLDHYRAALRSCSLVLEHQPDN [FKBP8], for which the protein stability index under setting [1] was 2.93 ± 0.18 and the protein stability index under setting [2] is 2.98 ± 0.27.

Consider QLLCPWAPLSGPQALMLPPGSFWG [VENTX], for which the protein stability index is 2.41 ± 0.62 under setting [1] and 1.73 ± 0.35 under setting [2].

Regarding QLPPASRCVLVFEQVRFLMKSYSF [SOAT2], the protein stability index was found to be 2.71 ± 0.67 under setting [1] and 1.95 ± 0.1 under setting [2].

Take QLQSLCRGLGLGGRRLKSPQAPDP [FANCE]: the protein stability index runs as follows: under setting [1], 3.02 ± 1; under setting [2], 3.16 ± 0.74.

For QLQVPTLRQQCAQVLRNNPDALSD [ELOA2], the protein stability index stood at 4.24 ± 0.36 under setting [1] and 4.42 ± 0.13 under setting [2].

Regarding QLVVMHPTPQVDELDILPIHPPSG [BTBD10], the protein stability index is, setting by setting: under setting [1], 3.74 ± 0.1; under setting [2], 3.75 ± 0.11.

On to QQCMLEILDTAGTEQFTAMRDLYM [RAP1B], for which the protein stability index by setting is: under setting [1], 2.53 ± 0.25; under setting [2], 2.6 ± 0.2.

For the sequence QQQQAMSFAILRIIRLVRVFRIFK [KCNA4], the protein stability index is, setting by setting: under setting [1], 2.71 ± 0.24; under setting [2], 3.01 ± 0.26.

As for QQRSKDLESRQRSLEQANRSLQLR [TFE3], the protein stability index is, setting by setting: under setting [1], 4.76 ± 0.062; under setting [2], 4.655 ± 0.041.

On to QQYAAQQYPGNYEQQQILIRQLQE [ACBD3], for which the protein stability index by setting is: under setting [1], 4.07 ± 0.19; under setting [2], 4.06 ± 0.22.

For QSFISWTGDGWEFKLADPDEVARR [ETS2], the protein stability index by setting is: under setting [1], 3.58 ± 0.1; under setting [2], 3.76 ± 0.19.

In the case of QSPVSPQPPAITQVHRQGERRREL [SMTNL2], the protein stability index amounted to 5.26 ± 0.14 under setting [1] and 5.12 ± 0.42 under setting [2].

QSRANGVKYPELVLEHSLDREEEA [PCDHGA10]: the protein stability index by setting is: under setting [1], 5.29 ± 0.12; under setting [2], 5.31 ± 0.15.

Take QSTVKCLTVLQRLDVWLSGGNDLC [WDR41]: the protein stability index runs as follows: under setting [1], 2.6 ± 0.63; under setting [2], 2.32 ± 0.4.

Consider QVANSAFVERVRKRGFEVVYMTEP [HSP90AB1], for which the protein stability index reads like this: under setting [1], 2.49 ± 0.4; under setting [2], 2.64 ± 0.24.

As to QVEGLTVQYLGQAPELLGGAEPGT [ADAMTS4], the protein stability index was 4.53 ± 0.51 under setting [1] and 4.87 ± 0.4 under setting [2].

Take QVGAKGDTANEIGQVLHFENVKDV [SERPINB5]: the protein stability index by setting is: under setting [1], 4.94 ± 0.37; under setting [2], 5.19 ± 0.24.

In the case of QWNAGEKKLTGGANWQPKVAPATW [SNAP91], the protein stability index runs as follows: under setting [1], 2.98 ± 0.33; under setting [2], 3.07 ± 0.14.

Turning to QYFTNRLDMSQNVSLVTAELSKDA [SLC29A1], the protein stability index by setting is: under setting [1], 4.2 ± 0.21; under setting [2], 4.25 ± 0.24.

Consider QYMNEGELRVLADTYDSVYLHPNS [HDAC6], for which the protein stability index was 2.83 ± 0.21 under setting [1] and 3.33 ± 0.52 under setting [2].

With RADAHLGSSSVALPKEASDGTGAS [TOR1AIP2], the protein stability index runs as follows: under setting [1], 5.5 ± 0.24; under setting [2], 5.33 ± 0.12.

Turning to RAEKEACQREKELPAAVHPFHFV [ZBED2], the protein stability index by setting is: under setting [3], 4.87 ± 0.39; under setting [4], 4.8 ± 0.34.

Consider RAGEQRKRSQSMKSYPSSELRNMC [CLCN6], for which the protein stability index reads like this: under setting [1], 4.29 ± 0.078; under setting [2], 4.37 ± 0.21.

In the case of RALEEANTELEVKIRDWYQRQAPG [KRT17], the protein stability index was 3.37 ± 0.16 under setting [1] and 3.58 ± 0.4 under setting [2].

For RDFLLDEANGLLPDDKLTLFCEVS [SPOPL], the protein stability index amounted to 3.03 ± 0.2 under setting [1] and 3.08 ± 0.34 under setting [2].

Sequence RDPPRPGPSRPAEKPPRPEAKSAQ [GCH1] displayed a protein stability index under setting [1] of 5.33 ± 0.35 and a protein stability index under setting [2] of 5.1 ± 0.045.

As to RDTFYKEQLERIERKNAEMYKLSS [CHCHD6], the protein stability index was determined as 3.5 ± 0.12 under setting [1] and 3.79 ± 0.43 under setting [2].

With REEQCAAYNHRTDLFKSFPGPMDW [ADAMTS4], the protein stability index was 3.06 ± 0.45 under setting [1] and 3.1 ± 0.3 under setting [2].

For RELLEFTHMYLQSDDEMELEETEP [P3H4], the protein stability index amounted to 4.98 ± 0.18 under setting [1] and 5.15 ± 0.22 under setting [2].

In the case of RFEQEAVAVDSNLRVRELQRKVDG [CCDC89], the protein stability index is, setting by setting: under setting [1], 4.98 ± 0.28; under setting [2], 4.9 ± 0.29.

Regarding RFPYLCQKNGGGAYLVPYLVLLII [SLC6A17], the protein stability index runs as follows: under setting [1], 2.64 ± 1.1; under setting [2], 2.49 ± 0.94.

For the sequence RFYLLLFSFLGLLALGVSLLCNAI [PTGFR], the protein stability index is 2.4 ± 0.26 under setting [1] and 2.57 ± 0.24 under setting [2].

For RGDPAHAGLAELGHRLAQKLQGLE [PBXIP1], the protein stability index runs as follows: under setting [1], 3.04 ± 0.34; under setting [2], 3.29 ± 0.32.

On to RGDRGPGPALAGEPAGSLRELGVW [C2CD2L], for which the protein stability index reads like this: under setting [1], 3.25 ± 0.14; under setting [2], 3.55 ± 0.27.

For the sequence RGSVARPTQGPETPRSPEGTTEAA [PXN], the protein stability index runs as follows: under setting [1], 5.39 ± 0.3; under setting [2], 5.31 ± 0.17.

Regarding RHTLQKLTCEFNNNHESLDEELHL [FBXO39], the protein stability index was 4.38 ± 0.21 under setting [1] and 4.56 ± 0.3 under setting [2].

Turning to RISFCADDKTDKRIFTFICKDSES [GULP1], the protein stability index came out at 3.52 ± 0.47 under setting [1] and 3.47 ± 0.96 under setting [2].

In the case of RKKTLVPGPPGSSRPVKGQVVTVH [FKBP8], the protein stability index was determined as 3.53 ± 0.31 under setting [1] and 3.46 ± 0.2 under setting [2].

RKRKKATEAIDSLRKSKRLRNRK [FBXO28] showed a protein stability index under setting [3] of 4.97 ± 0.1 and a protein stability index under setting [4] of 5.19 ± 0.12.

Regarding RLEQEIATYRRLLEGEDAHLSSQQ [KRT16], the protein stability index by setting is: under setting [1], 3.95 ± 0.097; under setting [2], 4.21 ± 0.18.

On to RLLLAESGLSFITFICYVASSASA [CMTM3], for which the protein stability index is, setting by setting: under setting [1], 2.53 ± 0.94; under setting [2], 2.43 ± 0.77.

As for RLSGLSSVGHNWRKRMGTRRGRHE [C22orf15], the protein stability index is, setting by setting: under setting [1], 4.08 ± 0.23; under setting [2], 4.14 ± 0.19.

For RLVYKFGKNSSGWKEEEVLQSRN [ELF3], the protein stability index under setting [3] came out at 2.76 ± 0.35 and the protein stability index under setting [4] came out at 3.21 ± 0.85.

RMLSKENKILQVFWEEHKASLGRE [CBY2] showed a protein stability index under setting [1] of 2.96 ± 0.39 and a protein stability index under setting [2] of 3.35 ± 0.074.

Turning to RNGGSLADAISENYRIMSYFKEAE [WEE1], the protein stability index reads like this: under setting [1], 3.08 ± 0.36; under setting [2], 3.2 ± 0.28.

On to RPEITSRAINLLFDIARIERCNQL [ZER1], for which the protein stability index was 2.47 ± 0.55 under setting [1] and 2.35 ± 0.59 under setting [2].

With RPQGPQLRQQQHKQNKQVLGYCLL [DNAJC4], the protein stability index under setting [1] is 2.52 ± 0.22 and the protein stability index under setting [2] came to 2.38 ± 0.23.

RPQLPQVLQHVRLPLLSPKFLVGT [KLHL20]: the protein stability index was found to be 2.8 ± 0.12 under setting [1] and 2.58 ± 0.26 under setting [2].

Take RQAIFPDTWTLTEEHGLQQERPRP [PXN]: the protein stability index runs as follows: under setting [1], 4.43 ± 0.25; under setting [2], 4.25 ± 0.28.

Turning to RQRLQDISSLPLPQSLKNYLQYQ [SPSB4], the protein stability index is 3.65 ± 0.074 under setting [3] and 3.65 ± 0.31 under setting [4].

Consider RQWTVSDWGPCSGSCGQGRTIRHV [ADAMTSL2], for which the protein stability index was determined as 2.15 ± 0.23 under setting [1] and 2.826 ± 0.025 under setting [2].

Regarding RRCRRCVCALCPVLGAHRGHPVGL [TRIM14], the protein stability index under setting [1] was 2.54 ± 0.33 and the protein stability index under setting [2] came out at 2.59 ± 0.38.

In the case of RRFGAVACGVAMELYVFGGVRSRE [GAN], the protein stability index by setting is: under setting [1], 3.04 ± 0.79; under setting [2], 2.26 ± 0.15.

As to RRLLVKDPKRRMTIAQSLEHSWIK [DAPK3], the protein stability index under setting [1] was 2.67 ± 0.25 and the protein stability index under setting [2] worked out at 2.82 ± 0.4.

With RRNSSSSMSSRLSIYDNVPGSILY [DLC1], the protein stability index by setting is: under setting [1], 2.75 ± 0.2; under setting [2], 2.87 ± 0.45.

Consider RRQAVAWLVAMHKAAKLLYESRDQ [ZFYVE21], for which the protein stability index is 2.29 ± 0.54 under setting [1] and 2.36 ± 0.49 under setting [2].

Consider RRSMKRKALFTCPFNGDCRITKDN [VDR], for which the protein stability index runs as follows: under setting [1], 3.29 ± 0.45; under setting [2], 3.48 ± 0.3.

Take RSLNVFVKEDDKLIFHRHPVAQST [SPSB1]: the protein stability index under setting [1] turned out to be 3.15 ± 0.18 and the protein stability index under setting [2] amounted to 3.36 ± 0.26.

On to RSQHARKETEFLRLKRTRLGLDDF [STK38L], for which the protein stability index was found to be 2.95 ± 0.28 under setting [1] and 3.04 ± 0.44 under setting [2].

On to RSVQNFRFFASSSLHHTSECTQMD [ALDH8A1], for which the protein stability index worked out at 3.14 ± 0.24 under setting [1] and 3.29 ± 0.33 under setting [2].

On to RTERVEQAFRAIDRGDYYLEGYRD [PCMTD1], for which the protein stability index by setting is: under setting [1], 3.77 ± 0.17; under setting [2], 3.82 ± 0.17.

Regarding RTIYHMFIAGLCVFIISTLAIDFI [SOAT2], the protein stability index runs as follows: under setting [1], 3.14 ± 0.56; under setting [2], 2.96 ± 0.67.

Turning to RTSLQYGIMCLKRLNYDRKELEKR [PPFIA4], the protein stability index under setting [1] was 2.88 ± 0.45 and the protein stability index under setting [2] is 2.83 ± 0.29.

As for RVGQLQEALNERHSIINALKAKLQ [LRRC45], the protein stability index is, setting by setting: under setting [1], 2.45 ± 0.43; under setting [2], 2.46 ± 0.3.

RVQKTSKELEDMNQKLFDLRGKFK [TNNI2]: the protein stability index runs as follows: under setting [1], 3.94 ± 0.25; under setting [2], 4.03 ± 0.3.

With RVVHWYFKLLDKNSSGDIGKKEIK [SMOC2], the protein stability index by setting is: under setting [1], 2.46 ± 0.97; under setting [2], 2.41 ± 0.4.

Source of the values: the supplement of paper PMC10567573.
